Source: PMC6370916

T1: recombinant human SEMA3C Fc chimera, Q99985
T1 chain: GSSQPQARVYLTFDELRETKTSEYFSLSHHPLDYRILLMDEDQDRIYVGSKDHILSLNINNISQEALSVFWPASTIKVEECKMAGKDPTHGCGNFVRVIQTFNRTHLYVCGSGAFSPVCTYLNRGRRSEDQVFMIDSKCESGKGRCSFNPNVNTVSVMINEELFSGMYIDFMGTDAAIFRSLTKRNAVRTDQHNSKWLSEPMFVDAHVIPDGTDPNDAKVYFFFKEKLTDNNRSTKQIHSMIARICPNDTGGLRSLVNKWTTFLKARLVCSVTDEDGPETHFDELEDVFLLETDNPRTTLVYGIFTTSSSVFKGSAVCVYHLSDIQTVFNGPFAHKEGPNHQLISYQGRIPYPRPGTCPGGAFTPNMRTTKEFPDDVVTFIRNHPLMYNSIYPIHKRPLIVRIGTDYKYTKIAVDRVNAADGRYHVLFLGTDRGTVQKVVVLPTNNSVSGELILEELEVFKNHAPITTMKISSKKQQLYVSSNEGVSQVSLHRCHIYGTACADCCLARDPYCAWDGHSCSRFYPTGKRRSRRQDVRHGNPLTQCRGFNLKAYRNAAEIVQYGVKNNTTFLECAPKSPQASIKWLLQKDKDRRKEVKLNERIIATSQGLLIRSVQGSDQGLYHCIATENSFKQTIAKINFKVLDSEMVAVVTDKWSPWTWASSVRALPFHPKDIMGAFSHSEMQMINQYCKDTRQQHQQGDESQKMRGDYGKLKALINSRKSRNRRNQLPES


Molecular target: T1, recombinant human SEMA3C Fc chimera, …
Test: Saturation receptor-ligand binding assay
Conditions: chain shown with the change, SEMA3C 0-10 nM, read-out O.D. 450 nm
[1] = NRP2 co-expressed with WT PLXNA1, parent: 0.63 nM
[2] = NRP2 co-expressed with WT PLXNA1, parent: 0.65
[3] = NRP2 co-expressed with WT PLXNA2, parent: 0.89 nM
[4] = NRP2 co-expressed with WT PLXNA2, parent: 0.60
[5] = NRP2 co-expressed with WT PLXNA3, parent: 0.93 nM
[6] = NRP2 co-expressed with WT PLXNA3, parent: 0.54
[7] = NRP2 co-expressed with WT PLXNA4, parent: 1.03 nM
[8] = NRP2 co-expressed with WT PLXNA4, parent: 0.65
[9] = cells expressing NRP2 alone (no PLXNA co-expressed), parent: 0.81 nM
[10] = cells expressing NRP2 alone (no PLXNA co-expressed), parent: 0.89

Row | Kd [1] | other: Bmax [2] | Kd [3] | other: Bmax [4] | Kd [5] | other: Bmax [6] | Kd [7] | other: Bmax [8] | Kd [9] | other: Bmax [10] | Binder
1 | 0.67 nM | 0.55 O.D. 450 nm | 1 nM | 0.52 O.D. 450 nm | 1.12 nM | 0.42 O.D. 450 nm | 1.25 nM | 0.55 O.D. 450 nm | 0.73 nM | 0.84 O.D. 450 nm | human Neuropilin 2, wild type, O60462 A506V (protein) RGQPDPPCGGRLNSKDAGYITSPGYPQDYPSHQNCEWIVYAPEPNQKIVLNFNPHFEIEKHDCKYDFIEIRDGDSESADLLGKHCGNIAPPTIISSGSMLYIKFTSDYARQGAGFSLRYEIFKTGSEDCSKNFTSPNGTIESPGFPEKYPHNLDCTFTILAKPKMEIILQFLIFDLEHDPLQVGEGDCKYDWLDIWDGIPHVGPLIGKYCGTKTPSELRSSTGILSLTFHTDMAVAKDGFSARYYLVHQEPLENFQCNVPLGMESGRIANEQISASSTYSDGRWTPQQSRLHGDDNGWTPNLDSNKEYLQVDLRFLTMLTAIATQGAISRETQNGYYVKSYKLEVSTNGEDWMVYRHGKNHKVFQANNDATEVVLNKLHAPLLTRFVRIRPQTWHSGIALRLELFGCRVTDAPCSNMLGMLSGLIADSQISASSTQEYLWSPSAARLVSSRSGWFPRIPQAQPGEEWLQVDLGTPKTVKGVIIQGVRGGDSITAVEARAFVRKFKVSYSLNGKDWEYIQDPRTQQPKLFEGNMHYDTPDIRRFDPIPAQYVRVYPERWSPAGIGMRLEVLGCDWTDSKPTVETLGPTVKSEETTTPYPTEEEATECGENCSFEDDKDLQLPSGFNCNFDFLEEPCGWMYDHAKWLRTTWASSSSPNDRTFPDDRNFLRLQSDSQREGQYARLISPPVHLPRSPVCMEFQYQATGGRGVALQVVREASQESKLLWVIREDQGGEWKHGRIILPSYDMEYQIVFEGVIGKGRSGEIAIDDIRISTDVPLENCMEPISAFAGENFKVDIPEIHEREGYEDEIDDEYEVDWSNSSSATSGSGAPSTDKEKSWLYTLDPILITIIAMSSLGVLLGATCAGLLLYCTCSYSGLSSRSCTTLENYNFELYDGLKHKVKMNHQKCCSEA
2 | 0.68 nM | 0.66 O.D. 450 nm | 1.01 nM | 0.67 O.D. 450 nm | 1.18 nM | 0.52 O.D. 450 nm | 1.07 nM | 0.59 O.D. 450 nm | 0.83 nM | 0.93 O.D. 450 nm | human Neuropilin 2, wild type, O60462 V573L (protein) RGQPDPPCGGRLNSKDAGYITSPGYPQDYPSHQNCEWIVYAPEPNQKIVLNFNPHFEIEKHDCKYDFIEIRDGDSESADLLGKHCGNIAPPTIISSGSMLYIKFTSDYARQGAGFSLRYEIFKTGSEDCSKNFTSPNGTIESPGFPEKYPHNLDCTFTILAKPKMEIILQFLIFDLEHDPLQVGEGDCKYDWLDIWDGIPHVGPLIGKYCGTKTPSELRSSTGILSLTFHTDMAVAKDGFSARYYLVHQEPLENFQCNVPLGMESGRIANEQISASSTYSDGRWTPQQSRLHGDDNGWTPNLDSNKEYLQVDLRFLTMLTAIATQGAISRETQNGYYVKSYKLEVSTNGEDWMVYRHGKNHKVFQANNDATEVVLNKLHAPLLTRFVRIRPQTWHSGIALRLELFGCRVTDAPCSNMLGMLSGLIADSQISASSTQEYLWSPSAARLVSSRSGWFPRIPQAQPGEEWLQVDLGTPKTVKGVIIQGARGGDSITAVEARAFVRKFKVSYSLNGKDWEYIQDPRTQQPKLFEGNMHYDTPDIRRFDPIPAQYVRLYPERWSPAGIGMRLEVLGCDWTDSKPTVETLGPTVKSEETTTPYPTEEEATECGENCSFEDDKDLQLPSGFNCNFDFLEEPCGWMYDHAKWLRTTWASSSSPNDRTFPDDRNFLRLQSDSQREGQYARLISPPVHLPRSPVCMEFQYQATGGRGVALQVVREASQESKLLWVIREDQGGEWKHGRIILPSYDMEYQIVFEGVIGKGRSGEIAIDDIRISTDVPLENCMEPISAFAGENFKVDIPEIHEREGYEDEIDDEYEVDWSNSSSATSGSGAPSTDKEKSWLYTLDPILITIIAMSSLGVLLGATCAGLLLYCTCSYSGLSSRSCTTLENYNFELYDGLKHKVKMNHQKCCSEA
